In US20250376529A1 (Amgen, published 2025):

T1: Rhesus GIPR (rhesus, UniProt F7E1R9 22-466)
T1 sequence: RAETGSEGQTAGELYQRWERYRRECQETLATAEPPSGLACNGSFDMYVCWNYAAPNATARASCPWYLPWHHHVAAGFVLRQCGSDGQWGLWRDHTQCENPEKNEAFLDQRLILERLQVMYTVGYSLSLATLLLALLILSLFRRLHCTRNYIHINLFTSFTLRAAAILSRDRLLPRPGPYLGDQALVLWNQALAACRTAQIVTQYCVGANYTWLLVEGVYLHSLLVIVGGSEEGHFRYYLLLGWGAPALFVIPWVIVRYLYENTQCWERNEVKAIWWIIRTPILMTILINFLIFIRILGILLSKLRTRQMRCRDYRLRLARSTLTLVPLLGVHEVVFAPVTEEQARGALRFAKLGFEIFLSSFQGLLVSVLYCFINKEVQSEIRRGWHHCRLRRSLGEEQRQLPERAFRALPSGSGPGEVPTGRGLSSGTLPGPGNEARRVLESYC


Each binder was assayed against T1, Rhesus GIPR (assay: cell-based or functional assay).

Binder	Rhesus GIPR CAMP Assay (Conc. mAb @ 60% Inhibition in nM)
2C2.005.013 (antibody, human IgG1, lambda, N297G, V domains shown) VH: QMQVVQSGAEVKKPGASVKVSCKASGYTFTGYYMHWVRQAPGQGLEWMGWINPNSGGTNYAQKFQGRVTMTRDTSISTAYMELSSLRSDDTAVYYCARGGDYVFGTYRPHYYYGMDVWGQGTTVTVSS VL: not shown	1.23 nM
4H9.004 (antibody, human IgG1, kappa, N297G, V domains shown) VH: QVQLVESGGGVVQPGRSLRLSCAASGFTFSYFGMHWVRQAPGKGLEWVAVIWYDGSNKYYADSVKGRFTISRDNSKNTLYLQMNSLRAEDTAVYYCARDGTIFGVLLGDYWGQGTLVTVSS VL: DIQMTQSPSSLSASVGDRVTITCRASQGIRNELGWYQQKPGKAPKRLIYGASSLQSGVPSRFSGSGSGTEFTLTISSLQPEDFVTYYCLQHNSYPFTFGPGTKVDVKR	0.43 nM
12H11.002 (antibody, human IgG1, kappa, N297G, V domains shown) VH: QVPLVQSGAEVKKPGASVKVSCKASGYTFTGYYIHWVRQAPGQGLEWMGWISPNQGETNYAQKFQDRVTMTRDTSISTAYMELSRLRSDDTAVYYCAREATIFGMLIVPFDYWGQGTLVTVSS VL: DIVMTQSPDSLSVSLGERATINCKSSQSVLSSSNNKNYLAWYQQKPGQPPNLLIYWTSTRDSGVPDRFSGSGSGTDFTLTINSLQAEDVAVYYCQQYYRTPWTFGQGTKVEIKR	0.45 nM
11C1.002 (antibody, human IgG1, kappa, N297G, V domains shown) VH: QVPLVQSGAEVKKPGASVKVSCKASGYTFTGYYIHWVRQAPGQGLVWMGWISPNSGETSYAQKFQDRVTMTRDTSISTAYMELSRLRSDDTAVYFCAREATIFGMLIVPFDYWGQGTLVTVSS VL: not shown	0.39 nM
11C1.008 (antibody, human IgG1, kappa, N297G, V domains shown) VH: QVPLVQSGAEVKKPGASVKVSCKASGYTFTGYYIHWVRQAPGQGLVWMGWISPNSGDTSYAQKFQDRVTMTRDTSISTAYMELSRLRSDDTAVYFCAREATIFGMLIVPFDYWGQGTLVTVSS VL: DIVMTQSPDSLSVSLGERATINCKSSQSVLSSSNNKNYLAWYQQKPGQPPNLLIYWTSTRDSGVPDRFSGSGSGTDFTLTINSLQAEDVAVYYCQQYYRTPWTFGQGTKVEIKR	0.43 nM
12H11.005 (antibody, human IgG1, kappa, N297G, V domains shown) VH: QVPLVQSGAEVKKPGASVKVSCKASGYTFTGYYIHWVRQAPGQGLEWMGWISPNNGETNYAQKFQDRVTMTRDTSISTAYMELSRLRSDDTAVYYCAREATIFGMLIVPFDYWGQGTLVTVSS VL: DIVMTQSPDSLSVSLGERATINCKSSQSVLSSSNNKNYLAWYQQKPGQPPNLLIYWTSTRDSGVPDRFSGSGSGTDFTLTINSLQAEDVAVYYCQQYYRTPWTFGQGTKVEIKR	0.61 nM
12H11.003 (antibody, human IgG1, kappa, N297G, V domains shown) VH: QVPLVQSGAEVKKPGASVKVSCKASGYTFTGYYIHWVRQAPGQGLEWMGWISPNQGDTNYAQKFQDRVTMTRDTSISTAYMELSRLRSDDTAVYYCAREATIFGMLIVPFDYWGQGTLVTVSS VL: DIVMTQSPDSLSVSLGERATINCKSSQSVLSSSNNKNYLAWYQQKPGQPPNLLIYWTSTRDSGVPDRFSGSGSGTDFTLTINSLQAEDVAVYYCQQYYRTPWTFGQGTKVEIKR	0.6 nM
11C1 (antibody, human IgG1, kappa, N297G, V domains shown) VH: QVPLVQSGAEVKKPGASVKVSCKASGYTFTGYYIHWVRQAPGQGLVWMGWISPNSGDTSYAQKFQDRVTMTRDTSISTAYMELSRLRSDDTAVYFCTREATIFGMLIVPFDYWGQGTLVTVSS VL: DIVMTQSPDSLSVSLGERATINCKSSQSVLSSSNNKNYLAWYQQKPGQPPNLLIYWTSTRDSGVPDRFSGSGSGTDFTLTINSLQAEDVAVYYCQQYYRTPWTFGQGTKVEIKR	0.65 nM
11C1.005 (antibody, human IgG1, kappa, N297G, V domains shown) VH: QVPLVQSGAEVKKPGASVKVSCKASGYTFTGYYIHWVRQAPGQGLVWMGWISPNSGETSYAQKFQDRVTMTRDTSISTAYMELSRLRSDDTAVYFCTREATIFGMLIVPFDYWGQGTLVTVSS VL: not shown	0.42 nM
11C1.007 (antibody, human IgG1, kappa, N297G, V domains shown) VH: QVPLVQSGAEVKKPGASVKVSCKASGYTFTGYYIHWVRQAPGQGLVWMGWISPNSGETSYAQKFQDRVTMTRDTSISTAYMELSRLRSDDTAVYFCTREATIFGMLIVPFDYWGQGTLVTVSS VL: DIVMTQSPDSLSVSLGERATINCKSSQSVLSSSNNKNYLAWYQQKPGQPPNLLIYWTSTRDSGVPDRFSGSGSGTDFTLTINSLQAEDVAVYYCQQYYRTPWTFGQGTKVEIKR	0.4 nM
12H11 (antibody, human IgG1, kappa, N297G, V domains shown) VH: QVPLVQSGAEVKKPGASVKVSCKASGYTFTGYYIHWVRQAPGQGLEWMGWISPNNGDTNYAQKFQDRVTMTRDTSISTAYMELSRLRSDDTAVYYCTREATIFGMLIVPFDYWGQGTLVTVSS VL: DIVMTQSPDSLSVSLGERATINCKSSQSVLSSSNNKNYLAWYQQKPGQPPNLLIYWTSTRDSGVPDRFSGSGSGTDFTLTINSLQAEDVAVYYCQQYYRTPWTFGQGTKVEIKR	0.79 nM
11C1.003 (antibody, human IgG1, kappa, N297G, V domains shown) VH: QVPLVQSGAEVKKPGASVKVSCKASGYTFTGYYIHWVRQAPGQGLVWMGWISPNSGDTSYAQKFQDRVTMTRDTSISTAYMELSRLRSDDTAVYFCAREATIFGMLIVPFDYWGQGTLVTVSS VL: not shown	0.48 nM
11C1.004 (antibody, human IgG1, kappa, N297G, V domains shown) VH: QVPLVQSGAEVKKPGASVKVSCKASGYTFTGYYIHWVRQAPGQGLVWMGWISPNSGETSYAQKFQDRVTMTRDTSISTAYMELSRLRSDDTAVYFCAREATIFGMLIVPFDYWGQGTLVTVSS VL: DIVMTQSPDSLSVSLGERATINCKSSQSVLSSSNNKNYLAWYQQKPGQPPNLLIYWTSTRDSGVPDRFSGSGSGTDFTLTINSLQAEDVAVYYCQQYYRTPWTFGQGTKVEIKR	0.33 nM
11C1.006 (antibody, human IgG1, kappa, N297G, V domains shown) VH: QVPLVQSGAEVKKPGASVKVSCKASGYTFTGYYIHWVRQAPGQGLVWMGWISPNSGDTSYAQKFQDRVTMTRDTSISTAYMELSRLRSDDTAVYFCTREATIFGMLIVPFDYWGQGTLVTVSS VL: not shown	0.51 nM

Second part, the binder after the results:

Rhesus GIPR CAMP Assay (Conc. mAb @ 60% Inhibition in nM)	Binder
0.29 nM	17B11.002.001 (antibody, human IgG1, lambda, N297G, V domains shown) VH: QMQLVQSGAEVKKPGASVKVSCKASGYTFTSYDINWVRQATGQGLEWMGWMNPNSGGTGYAQKFQGRVTMTRDTSISTAYMELSSLRSQDTAVYYCARGGDYVWGSYRPYYYYYGMDVWGQGTTVTVSS VL: QSVLTQPPSVSAAPGQKVTISCSGSSSNIGNNYVSWYQQLPGTAPKLLIYDNNKRPSGIPDRFSGSKSGTSATLGITGLQTGDEADYYCGTWDSSLSAVVFGGGTKLTVLG
0.47 nM	12H11.011 (antibody, human IgG1, kappa, N297G, V domains shown) VH: QVPLVQSGAEVKKPGASVKVSCKASGYTFTGYYIHWVRQAPGQGLEWMGWISPNQGDTNYAQKFQDRVTMTRDTSISTAYMELSRLRSDDTAVYYCAREATIFGMLIVPFDYWGQGTLVTVSS VL: not shown
0.56 nM	12H11.008 (antibody, human IgG1, kappa, N297G, V domains shown) VH: QVPLVQSGAEVKKPGASVKVSCKASGYTFTGYYIHWVRQAPGQGLEWMGWISPNNGETNYAQKFQDRVTMTRDTSISTAYMELSRLRSDDTAVYYCTREATIFGMLIVPFDYWGQGTLVTVSS VL: DIVMTQSPDSLSVSLGERATINCKSSQSVLSSSNNKNYLAWYQQKPGQPPNLLIYWTSTRDSGVPDRFSGSGSGTDFTLTINSLQAEDVAVYYCQQYYRTPWTFGQGTKVEIKR
0.71 nM	12H11.010 (antibody, human IgG1, kappa, N297G, V domains shown) VH: QVPLVQSGAEVKKPGASVKVSCKASGYTFTGYYIHWVRQAPGQGLEWMGWISPNNGDTNYAQKFQDRVTMTRDTSISTAYMELSRLRSDDTAVYYCAREATIFGMLIVPFDYWGQGTLVTVSS VL: not shown
0.6 nM	12H11.009 (antibody, human IgG1, kappa, N297G, V domains shown) VH: QVPLVQSGAEVKKPGASVKVSCKASGYTFTGYYIHWVRQAPGQGLEWMGWISPNQGETNYAQKFQDRVTMTRDTSISTAYMELSRLRSDDTAVYYCAREATIFGMLIVPFDYWGQGTLVTVSS VL: not shown
0.56 nM	12H11.007 (antibody, human IgG1, kappa, N297G, V domains shown) VH: QVPLVQSGAEVKKPGASVKVSCKASGYTFTGYYIHWVRQAPGQGLEWMGWISPNQGDTNYAQKFQDRVTMTRDTSISTAYMELSRLRSDDTAVYYCTREATIFGMLIVPFDYWGQGTLVTVSS VL: DIVMTQSPDSLSVSLGERATINCKSSQSVLSSSNNKNYLAWYQQKPGQPPNLLIYWTSTRDSGVPDRFSGSGSGTDFTLTINSLQAEDVAVYYCQQYYRTPWTFGQGTKVEIKR
0.57 nM	12H11.012 (antibody, human IgG1, kappa, N297G, V domains shown) VH: QVPLVQSGAEVKKPGASVKVSCKASGYTFTGYYIHWVRQAPGQGLEWMGWISPNNGETNYAQKFQDRVTMTRDTSISTAYMELSRLRSDDTAVYYCAREATIFGMLIVPFDYWGQGTLVTVSS VL: not shown
0.59 nM	12H11.006 (antibody, human IgG1, kappa, N297G, V domains shown) VH: QVPLVQSGAEVKKPGASVKVSCKASGYTFTGYYIHWVRQAPGQGLEWMGWISPNNGDTNYAQKFQDRVTMTRDTSISTAYMELSRLRSDDTAVYYCAREATIFGMLIVPFDYWGQGTLVTVSS VL: DIVMTQSPDSLSVSLGERATINCKSSQSVLSSSNNKNYLAWYQQKPGQPPNLLIYWTSTRDSGVPDRFSGSGSGTDFTLTINSLQAEDVAVYYCQQYYRTPWTFGQGTKVEIKR
